What was measured:
Neto2-ΔCUB2-HA = Neto2-ΔCUB2-HA (UniProt Q8BNJ6); assay: co-IP
Neto1-ΔCUB2-HA = Neto1-ΔCUB2-HA (UniProt Q8R4I7); assay: co-IP

amount of GluK2 co-immunoprecipitated, percent of full length Neto2 (Neto2-ΔCUB2-HA): 33%
amount of GluK2 co-immunoprecipitated, percent of full length Neto1 (Neto1-ΔCUB2-HA): 39%
Substance: FLAG-GluK2 (from UniProt P42260 32-908) (receptor)

Reference: PMC3148853
